Test results taken from US20210324359A1, “USE OF GRAM-NEGATIVE LYSIN-ANTIMICROBIAL PEPTIDE (AMP) POLYPEPTIDE CONSTRUCTS IN TREATING ENDOCARDITIS” (priority 2020, published 2021).

Tests used:
[1] = system: Pseudomonas aeruginosa biofilm; experiment: MBEC in CAA supplemented with […] human serum (Table 14); format: cell-based
Description: Biofilms are then washed and treated with e.g., a 2-fold dilution series of the lysin in TSBg at e.g., 37° C. for 24 hours. After treatment, wells are washed, air-dried at e.g., 37° C. and stained with e.g., 0.05% crystal violet for 10 minutes.
(§1) Materials and methods: MICs were determined by broth microdilution in media supplemented with human serum and pulmonary surfactant ([…]®; Myoderm Clinical Supplies). Minimal biofilm eradicating concentrations (MBECs) were determined using standard methods. […] Fluorescence microscopy was performed after LIVE/DEAD staining (ThermoFisher) and TEM was performed.

[2] = system: Pseudomonas aeruginosa strain CFS-1292 (meropenem resistant); details: strain CFS-1292; no added cations
Description: The activity of selected GN lysins and constructs in the presence of divalent cations was evaluated, and the impact of divalent cations at physiological concentrations was examined in the MIC assay format.

[3] = system: Pseudomonas aeruginosa strain 1292; details: 10 μg/mL, 15 minutes, 100% human serum
Description: Samples were stained using the Live/Dead Cell Viability Kit (ThermoFisher) and examined by both differential interference contrast (DIC) and fluorescence microscopy.

[4] = system: P. aeruginosa strain WC-453; experiment: Time-kill assay in HEPES or CAA with 25% human serum (Tables 7, 8); format: cell-based, Pseudomonas aeruginosa
Description: Exponential phase bacteria were then pelleted and resuspended in 1/5 culture volume of 25 mM HEPES, pH 7.4 before a final adjustment to an optical density corresponding to a McFarland value of 0.5. […] All treatments were incubated at 37° C. with aeration. At time points before the addition of lysin (or buffer control) and at 1 hour and 3 hours intervals thereafter, culture samples were removed for quantitative plating on CAA agar plates.

[5] = system: Pseudomonas aeruginosa strain CFS-1292 (meropenem resistant); experiment: MIC in 25% CAA alone, with […] human serum or […] SURVANTA (Table 13); format: cell-based
Description: as §1

B1: GN121: variant lysin (SEQ ID NO: 175), also disclosed in WO 2019/118632 (protein)
chain: MTYTLSKRSLDNLKGVHPDLVAVVHRAIQLTPVDFAVIEGLRSVSRQKELVAAGASKTMNSRHLTGHAVDLAAYVNGIRWDWPLYDAIAVAVKAAAKELGVAIVWGGDWTTFKDGPHFELDRSKYRRKKTRKRLKKIGKVLKWI
MBEC in CAA supplemented with […] human serum [1]: 0.25 µg/mL
MIC in 25% CAA [2]: 1 to 2 µg/mL
live/dead bacteria by microscopy [3]: a reduction of live bacteria
bactericidal activity (CFU decrease of 3-Log10, 3 hours after the addition of lysin) ([4]; 10 μg/mL, enumerated lysins in CAA/HuS, general statement for HEPES and CAA/HuS): bactericidal activity
HEPES (Log10 CFU/mL), 1 hr ([4]; 25 mM HEPES pH 7.4, lysin 10 μg/ml, 1 hr, WC-453): <3.7 Log10 CFU/mL
HEPES (Log10 CFU/mL), 3 hr ([4]; 25 mM HEPES pH 7.4, lysin 10 μg/ml, 3 hr, WC-453): <3.7 Log10 CFU/mL
CAA/HuS (Log10 CFU/mL), 1 hr ([4]; CAA + 25% human serum, lysin 10 μg/ml, 1 hr, WC-453): 7.6 Log10 CFU/mL
CAA/HuS (Log10 CFU/mL), 3 hr ([4]; CAA + 25% human serum, lysin 10 μg/ml, 3 hr, WC-453): <3.7 Log10 CFU/mL
MIC in […] Survanta [5]: 2 µg/mL
MIC in human serum ([…]) in CAA [5]: 0.5 µg/mL
activity in human serum and pulmonary surfactant [5]: active in human serum and pulmonary surfactant
25% CAA MIC ([5]; media alone): 1
